{"source": "paper PMC3666314", "molecular_target": "biotinylated PECAM-1 Y663,pY686 peptide (human)", "test": "flow cytometry bead-based binding assay"}
{"binder": "GST fusion protein containing the SH2 domain of Csk (domain or fragment) WFHGKITREQAERLLYPPETGLFLVRESTNYPGDYTLCVSCDGKVEHYRIMYHASKLSIDEEVYFENLMQLVEHYTSDADGLCTRLIKPK", "values": [{"measurement": "binding relative to the Lyn SH2 domain", "value": 2, "unit": "fold"}]}
